From the supplement of paper PMC9170038

Tested on: MS2 coat protein
Assay: apparent KD of MS2 coat protein; designed switch direction (-1 OFF switch, 1 ON switch): -1; higher = weaker reporter binding
Outline: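 Stalled E. coli RNA polymerase transcribed designed RNA switches on Illumina chips, which were then titrated with SNAP-549-labelled MS2 coat protein, doubling from 0.7 or 1.5 nM to 3 µM. Steps lasted from 0.8–1.5 h at the lowest concentration to 10–20 min at the highest. The apparent KD is each design's median over clusters of curve-fitted normalised fluorescence.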

[1] = input ligand: microRNA oligo, concentration not stated
[2] = Eterna round: R95, input ligand: FMN 200 uM
[3] = Eterna round: R95, input ligand: microRNA oligo, concentration not stated
[4] = Eterna round: R95, input ligand: none

Sequence	apparent KD of MS2 coat protein (input ligand: FMN 200 uM) [nM]	apparent KD of MS2 coat protein [1] [nM]	apparent KD of MS2 coat protein (input ligand: none) [nM]	apparent KD of MS2 coat protein [2] [nM]	apparent KD of MS2 coat protein [3] [nM]	apparent KD of MS2 coat protein [4] [nM]
AUUAUAAGGAGAGGAUAUCUAAUAAUAUAUAUUAGAGAAGGCUCACAUGAGGAUCACCCAUGUUUUUUUUUUUUUUUUUUUUUU [Default title] (Eterna round: R96, puzzle: Exclusion NG 1)	89.5	65	71.7			
CUUCUGUGAGGAUAUGUUAGUUCCCAGCAAAUCGCUGGGAGACAGAAGGCACAUGAGGAUCACCCAUGUGGGCG [Vexeanra] (Eterna round: R96, puzzle: Exclusion 4)	612	49.8	64.7			
UUAAUUCGGAUUCUUGAAAUACAUGAGGAUCACCCAUGUUCACAGGAUAUUGAUUAAGUUAGUAACAAGAAGGGUGUAACAUAA [JR_ExcNG3_Sub035] (Eterna round: R96, puzzle: Exclusion NG 3)	57.8	17.6	22.9			
UUUUUAGUGCUUUUUAAGUACAUGAGGAUCACCCAUGUACUUGUCUGGUGGUCCGGACAAGCUUUUUGCUCGUCUUG [Trying Again] (puzzle: Sensor v3, turn-off variant 1)				41.4	35.9	48.2
GUUUUCAGACGGAGAUCCUACAUGAGGAUCACCCAUGUCUCUCUUGUUAAUUGCUCGUCUUUUCCUCCUCUGUUCUC [Elimod 34 - Jieux - Sensor, turn-off variant 1] (Eterna round: R97, puzzle: Sensor, turn-off variant 1)	545		605			
ACCUCUGAGGAGGAUAUACAGUGCGAAAGGACAGUAGAAGGCUUCACAUGAGGAUCACCCAUGUCGAAUAGUGA [EX6 #79] (Eterna round: R97, puzzle: Exclusion 6)	86.1		58.7			
UUAUUAUAUGUAGGAUAUGCAUAUUGUUGUUAUGCAGAAGGACAUGAGGAUCACCCAUGUAUAUUAUUGUUGUGUAUUAUAUAU [Title] (Eterna round: R96, puzzle: Exclusion NG 1)	57.1	29.1	33			
CCAUGUUAGCAGGAUAUGCAAUAAAUCUUUUAAGCAGAAGGGCUUACAUGAGGAUCACCCAUGUAUAAAGUCAA [JR_E6_Sub079] (puzzle: Exclusion 6)					19.9	
CGCCUACAUGAGGAUCACCCAUGUGAGGAUAUCCUGCGAGGAUCAAAAGAUCCUCGUGGGAGAAGGCGCUUGGA [Omei Ex1 B7] (Eterna round: R97, puzzle: Exclusion 1)	18.7		19.4			
UAUUCUGGAGGAUAUACAUGAGGAUCACCCAUGUAAAUUGUACAGAGCGGGAGUCUAUGUAGAAGGCUAGGACA [EX3 C.2] (Eterna round: R97, puzzle: Exclusion 3)	60.8		19.1			
AAAAUGCAAGGAUAUCGCGAUAAAUACAUGAGGAUCACCCAUGUGAUUACGUGGGCACGGCGAGAAGGUGCUAAAA [Amadius] (puzzle: Exclusion 5)				119	26.1	33.8
CCUCUACAUGAGGAUCACCCAUGUGAGGAUAUCAAAGUCAGGGCGGCGCCCUGACUCAUGAGAAGGUGCAUGAA [EX1 A.16] (Eterna round: R97, puzzle: Exclusion 1)	31.8		22.4			
CUGCUCCGUGUAGGAUAUGCAUACAACCAAUAUGCAGAAGGACAUGAGGAUCACCCAUGUAUGUUAUUAUCACGUGAAGCGUCC [Design 20] (Eterna round: R96, puzzle: Exclusion NG 1)		16.8				
AGCGGAGAUGUCAGGAUAUCUCGCUCGGUGGGUUGAGAGAAGGGACAUGAGGAUCACCCAUGUCUGCAAUUGUC [Eternabot (Original) Solution 46] (Eterna round: R97, puzzle: Brourd's mod of Exclusion 4)	19.9		17.9			
GGUUGGCGAGGAUAUACAUGAGGAUCACCCAUGUGAGCGAAAAAAGUGAGGAAGAAAAGUAGAAGGCGCUGACG [salish99_ex3_r3_020] (puzzle: Exclusion 3)				236	40.1	63.5
AAUAACAGAGGAUAUACUGUUUUAUGUGUUUAUUAUUUUGAACAUGAGGAUCACCCAUGUAGAAGGCUGAAUGA [JMF 63] (puzzle: Exclusion 2)					27.6	
AUAUUGUGAGGAUAUGAACUUAGUUUCGAAAGAUACUAAGUUCAGAAGGCACAUGAGGAUCACCCAUGUUUCUC [Long static hairpin v21] (Eterna round: R97, puzzle: Exclusion 4)	597		79.8			
UUUCAACGGUAGGAUAUCGAGACUACGACUAGCCGAGAAGGGCCGACAUGAGGAUCACCCAUGUGCCUCACCCG [Eternabot (L1) Solution 56] (Eterna round: R97, puzzle: Exclusion 6)	22.9		23.9			
GUAACAACUAGAGGAUAUCAGCACGUGUUGUGCUGAGAAGGCUAGAGUUACAUGAGGAUCACCCAUGUCUAGAGAUCAUUAAUU [ENG1/13-A4] (Eterna round: R96, puzzle: Exclusion NG 1)	120	29.5	49.1			
CCUAGUUGGUAAGGAUAUCCUACAUUGUUCUGACCCGGGCAUGCUACAUGAGGAUCACCCAUGUGGGAGAAGGUGCGUCAUCGC [Design 16] (Eterna round: R96, puzzle: Exclusion NG 2)	80.4	55.9	83.4			
ACAAACAGCUGAGGAUAUCACGAGCAAGGCCAGUGAGAAGGUAGCUCAAACAUGAGGAUCACCCAUGUUAAACUUCCUCAUGCG [Raisorar] (Eterna round: R96, puzzle: Exclusion NG 1)	13.7	10.4	17.7			
CUUGAAUAAGUGAGGAUAUACUGUUAGUAAUGAUUGUAGAAGGUACAUGAGGAUCACCCAUGUUUAUUCAUAAU [JR_BME4_Sub041] (puzzle: Brourd's mod of Exclusion 4)					17.5	
ACGAGCUUUUUGCUCGUUUACAUGAGGAUCACCCAUGUGUCUUCGCGCCCGGGCCCGGGCGGGCCCGGGCCCGGGCG [-52.9, -56.9, A 10%] (Eterna round: R97, puzzle: Sensor, turn-off variant 1)	50.6		57.6			
UAAAAUAGUGUGAGGAUAUGCUGGUCCUUGGAUCAGCAGAAGGCACAUGAGGAUCACCCAUGUAGUUAAUAAUA [Mat - Exclusion 4 - JL Mod - D25] (puzzle: Brourd's mod of Exclusion 4)				196	36.8	34.4
GCUUAUAGAGGAUAUACAGAUUAUUACAUGAGGAUCACCCAUGUUCUUCAAUGUAUAUAUGUAGAAGGCUAAGGAG [Mat - Exclusion 5 - JL Mod - D11] (Eterna round: R97, puzzle: Exclusion 5)	175		63.2			
